From the DeepSol protein solubility set

Experiment: soluble on expression in E. coli; label from the status in PepcDB or PDB records

| Sequence | soluble on expression in E. coli |
| --- | --- |
| MGSDKIHHHHHHMKILFLSHLDMNLYLFRRPIMEALRKEGHEVIAMCPKGEYFDRFKELGIKAISYEISRESLNPFKELKTLLSIAQKLSELKPDILHTFMLKPNIYGTLASKIASIPYVICSVTGLGSFYIEESFKSRAIRYLIETLSRIVFKIAKKVVFQNEDDRQLFIQKGLVESSKTHLIKGSGINTKLFDPALISPSTLVRYRQELGLEKKHVVLMVARAIAHKGVREYYEAARLLGAFTSDSHLAFLFVGDTDEGNPSCVSSKELYSPHVLWLGHREDILELMALCDIFVLPSYREGIPRTLLEASSLAKPMVTSLAVGCKEVVKEGENGFLVPVGDTKALAQKIHYLVQNPALRLSMGEKARQIAQKEFDVSIIVKAHLELYKEVRGDLQKTL | not soluble |
| MSLGIRGLDLSDLFVSGASYKRLGSEEMMRSTFQKLDREIAAIFLGLSDGTISKAIEYSKVRTAFDHPLKDYSPIFDDLVSLKMEIDVLRFYLYGSGDEYSRALIKIKAKDLSLRATRVSLQTHGGYGYIHDFGIEKYYRDAMALSVYFGQDKYENMVLSDHIFGEAGGEGHHHHHH | not soluble |
| MSKEPRIKILNGQTVQVRKEDHTIMNPLRWCIGKNFTGEKVELVGYTIPHPSDDISNITIQLCDESLQTPPNLLKKLVEGLECMEAIGAKIASEIERSKGGFNK | not soluble |
| MGSDKIHHHHHHMTQQTDLQSKTNIDPLAMNDSFLAAADALAVDPMFGIPANVREVIARRGNATRLVILGTKGFGAHLMNVRHERPCEVIAAVDDFRYHSGELYYGLPIISTDRFTELATHDRDLVALNTCRYDGPKRFFDQICRTHGIPHLNFEQAVRAFGLQGNVDYRVDDWGADIVRNIPAFQTLAQRLADDYSVQTLYAVLNFHLTCEPEYYHEVERPYSTLYFRSGLLRFSDSEKMVDCGASIGESLAGLIGVTKGKFERVWMIEPDRINLQTLQNVLRRYTDTNFASRITVHGCGAGENTIRVPFNHEGGHGGFVKPADADHEPADLIDVRPIDDIIDDAPTFIKMDIEGSELSALKGARRAISEHKPKLAISAYHRSTDLLDLTNYILSIRPDYQIGLRHHTPDRWDTCLYFY | not soluble |
| MFSWQEFTERDVSLFTENVIRSLINTKYNVICHIEDYTPPQFDSFLQLSACYNIGEKTEDEVINSDGIRWSKKKDSLGSEMKPRKNTISVDGRTFRRINCSSPPPATNLFKKYMAIEEATKLCWILFLGSSHDVIDYTSLKVARKKLSKEEALMIRKMLEGRTVLMVYQMLGGKYSKRQIKDQQRNVLTTVKLNRGPRPVTNPADLCDLSRMFSHAYHSSHRNSIRFIYFNKSMLGLFLKSCPTYTEITTYRNRMDGIENWRTADLNKHLADCKVYTCGGIDTRVASIIELDTTFGLSNGYISVTTGFIPVFRTRQHTKSSPSKLRHVVLGFMFHSSKHKSHFEDFSGRLNEILQELDPKKIKKIQL | not soluble |
| MIPLCREHNKTCRVKVNYHWRVYNEDINKNAVLELSCQCQVLDQLRKTFVELGSSTIHSAADFEFSCITKDGPVVLSSGYEIYNNIRPELSFYHSQLPQLFLHVRILDVSVIAKLDDLGRTVNECKATMKSDKAWRVMKDTEIAEGQLSLQELLDKQQLEIKSLQKDISEMKLENQCRKKEDKNSFKNKEVHEASCDKCQDLIIGHRFKCAICYNYDLCETCEAAGVHAQHALIRLVSENTLFPEHLIVKNPEEVKDQNGQVQAIASSRDRAIQVPLRRLGITPQAIATKNNVSRYLNAQSDRNIIEDPWYAQHMSSRKPQTYERMHPKLKDTTDGKKVQKVSFRDRFYKKAESSLDKHEKQLRFDLSASRQEFIREKEKFRVEKETLMKQKEQIEEMMKQETINFETNRAFFSDRFEPIFNKVKDGKKSEDDTTRKVEFEVETAESNYPGSIFSDEDSLSDLAEILKDIEEYECSSESSDDQEKDDFDVVEEEAKQS | not soluble |
| MDTEMLIDKYQLNDSEAAVLRFMDKNRDCLKSLGIREVAKASYVSTTAIINMAKKIGYSGYSELVFAYGNKHSSISFPENFSNEEKDEFIRLLSRYREKRIMVLGSGFSQNIANHFSEMLNLYGFRATANSHLEFLRENVEKDVLIFIVSNSGDTLRLAELVKLAKNHHIDLIAFVGEKKSKIGQLATLTISTETYNPQVVSEYQPNLFFGTALNQFELLLSEALKSIFI | not soluble |
| MAKMRRYPAVAGQFYPEGDALIEMLSSFFKDLGEEGTKRTITAGVAPHAGYVFSGFTASRTYKAIYEDGLPEVFVIFGPNHTGLGSPIALYPEGEWITPMGSIKVDSKFAKEIVKRSGIADLDDLAHKYEHSIEVQLPFIQYIAEKAGVEVKIVPITLGIQDEEVSRSLGRSIFEASTSLGRDTIIIASTDFMHYGSFYGYVPFRGRPEELPNMVRDWDMRIIRRILDFDLDGMFSEIREMNHTMCGPGGVGAGIIYSRLMKAKEAELLHYTTSFEVSRSPDAIVGYASIIMKRLEHHHHHH | not soluble |
| MSLSTPPRAFSLVETGEALTRGDEPSPTRSAVLTRLSHSHMRFGTFQRLAYLDRRDLMVQLVDHVIESYFPDLADESDRPAVLMRAVVSASARLLSRWMSAGFVHGVLNTDNMVVTGESFDYGPWRFLPRNDPNFVAAYFDHAGLYSFGRQPEAVFWNLQQLAGCLSLVTDQAALLAALNSFSDLYRAALRGAMLDRLGLKSRGAEADIALVNTAFRALAEGGETLRWEPFFFDWFGGAASEERALRGPRAGLYAGEAFLDLRRALADFDPDRPERLAHPAFARPEPEELIIDEVEALWSPIADADDWGPLNAKLARIDAAREAYALGQAQIEGHHHHHH | soluble |
| MSLTAPLPYTRAANLPALLRERILILDGAMGTMIQRYKLTEAQYRGERFASHPVDVKGNNELLLLTRPEVIREIHEQYLAAGADLIETNTFGATTVAQEDYKMAELAYEMNVVAARLAREACDKYSTPDKPRFVAGAFGPTPKTASISPDVNDPGARNISFDQLRDAYYEQGKALLEGGADVFLVETIFDTLNAKAALFAIDQLFEDSGERVPVMISGTVTDASGRILSGQTVEAFWNSLRHAKPITFGLNCALGAALMRPYIAELAKICDTAVSCYPNAGLPNPMSDTGFDETPEVTSSLVDEFAAAGLVNLVGGCCGTTPEHIRAIAERVAQRKPRAWPGQYREAAEGHHHHHH | soluble |
| MAHHHHHHMTAPITGPMLLGAASVDVLRSMLTLDPFQCLVAQRLCEELSCQRFPKVTLLIFKSMPDPRLLQLRSSVGEEVTVTVSRLNDLRCKFTLGDKANYEHLYNMRTPAKPRTVCTFDIVLPTSRLTGLSRCIDHLIAAAERMVMPRITVEALCCTEQDERRKIVREEKDHWDFLFHGLRVGSFITVLRRLPSITAMHAPPIPHDYTFSAALSNPGFVLPSHYCGRLATVPTGAKGVSTPFIAIAEPAIPTGAKVSIRCQLIRGNQGQILGGGYYFGVCTPSFHWKHKDLNVHTGEVWALHDMDDSPWRLRHLRPDATFPVAAEPRCIIVSGDIIRLYIDRTARVMHAFRTPVNGDEIPLGLHL | not soluble |
| MGSDKIHHHHHHMQNLSPTQREILLALTDLYNRQKRMIKSKEVADIIGKDEGTVRNIILSLKVLGLVESKPGPNGGYMPTLKAYEIINNPTLTPILDKLNLYKGMIETDIKVENIEIIDITNPSANRVLLKVEGDLRKLKIGDAVRLGPTPYSRLVIEGLILHLDENSKEIVVDVKRMISIPKEKVKNLISKKLIALKPETSLREASMIFYKEAIRGAPVINQDEKVVGILTTADIIKAFFEGNYTAKVSDYMKTNVISINENEDLLDAIRKMIIYNVGRLLVLDSNNKAVGIVTRTDILRSIAGLEGLWTT | not soluble |
| HPICEVSKVASHLEVNCDKRNLTALPPDLPKDTTILHLSENLLYTFSLATLMPYTRLTQLNLDRAELTKLQVDGTLPVLGTLDLSHNQLQSLPLLGQTLPALTVLDVSFNRLTSLPLGALRGLGELQELYLKGNELKTLPPGLLTPTPKLEKLSLANNNLTELPAGLLNGLENLDTLLLQENSLYTIPKGFFGSHLLPFAFLHGNPWLCNCEILYFRRWLQDNAENVYVWKQGVDVKAMTSNVASVQCDNSDKFPVYKYPGKGCPTLGDEGDTDLYDYYPEEDTEGDKVR | soluble |
| MGSDKIHHHHHHMAKQVVKRTIIGSITNHQQVQDDLDSLGFAASKLWNVARWTTGRIWNETGHIPEDGELKSYLKSHERYSDLHSQSSQRVLEELSEAFTGWYGKRRNGDSKANPPAYRKHNDEHPRSTLTFKGAGFKLDTTNGRLRLSKGENLKEYWSDFVLCDIQIRPDVDLSAIESVQQVRAVWNKQRNEWELHVVCNVTVDIPENSAEKTVGIDLGICNFAALAFENQESELYPLNCLKQDDYYYSKHIARCDDSSSEEATRLHAKKSNRRTHYFHTLSKHIVERCVDENVGVIAIGDLSGIREDEDGEMKDWGKHGNLDLHSWAFDRFTDMLEYKAEEVGISVKRVSEENTSKSCSSCGCERDTNRVERGLYVCNECELVANADVNGAENIRQQVSPNPRSEDRSNGWLAQPSTLLFDKETGVFAPQEQVVS | not soluble |
| MFKDKKILVIGGTGSIGQALIERILTENPAVIRVYSRDEYKQFLLAEKFRENANIRYLIGDVRDEDRLDRAMNDIDIVFNLAALKHVPACEYNPFEAVRTNVIGSQNVIACAMANKVKKVIYTSSDKAVSPTNTMGATKLLAERLMSSSNYSRGNTGTVFASVRFGNVMGTRGSVIPLFKQQVLEKGYITVTEPEMTRFMMSLSQAVELTIKACSIARGGEVFVLKMPVIRLKDLAEVIIEDMCKKNNIDPEKIEIKKIGLRPGEKMYEELMSEDESTKAVELNDMYVIMPPFENSYYINARKAVIGNYSSQKEKTLTKSQIRELLVREKLI | not soluble |
